Sequences and labels used below:
B1: ZNF649 (parent)
chain: YHTGKTPFVCPECGQPCSQKSGLI
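Also: lentivirally expressed fusions sorted by FACS into six bins by GFP to DsRed ratio, PSI derived from sequencing read proportions per bin multiplied by bin number.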

This data set covers variants of B1. The data set can be described thus: protein stability index of a GFP-peptide fusion (GPS, HEK-293T) (PSI 1-6); higher = more stable. Particulars: c terminus: a fixed tail appended.
Turning to YHTGKTPFVCPECGQPCDQKSGLI, the protein stability index is 2.25.
Take YHTGKTPFVCPECGQPCHQKSGLI: the protein stability index was found to be 1.26.
As for YHTGKTPFVCPECAQPCSQKSGLI, the protein stability index was 2.16.
With YHTGKTPFVCPECEQPCSQKSGLI, the protein stability index came out at 1.95.
Consider YHTGKTPFVCPECSQPCSQKSGLI, for which the protein stability index worked out at 1.72.
Regarding YHTGKTPFVCPECRQPCSQKSGLI, the protein stability index is 3.6.
YHTGKTPFVCPECQQPCSQKSGLI: the protein stability index is 2.31.
Take YHTGKTPFVCPECTQPCSQKSGLI: the protein stability index was determined as 3.65.
The figure for YHTGKTPFVCPECGQPCSQKSGLD is 1.36; for YHTGKTPFVCPECGQPCSQKSGLF it is 2.92.
The figure for YHTGKTPFVCPECGQPCSQKSGLA is 1.08; for YHTGKTPFVCPECGQPCSQKSGLN it is 1.99.
The figure for YHTGKTPFVCPECGQPCSQKSGLE is 2.12; for YHTGKTPFVCPECGQPCSQKSGLY it is 1.59.
With YHTGKTPFVCPECGQPCSQKSGLG, the protein stability index was 2.94.
With YHTGKTPFVCPECGQPCSQKSGLS, the protein stability index turned out to be 1.45.
Then YHTGKTPTVCPECGQPCSQKSGLI, with 1.67.
Then YHTGKTPNVCPECGQPCSQKSGLI, with 2.16; and YHTGKTPYVCPECGQPCSQKSGLI, with 1.54; and YHTGKTPDVCPECGQPCSQKSGLI, with 2.17.
The figure for YHTGKTPSVCPECGQPCSQKSGLI is 2.15.
Consider YHTGKTPVVCPECGQPCSQKSGLI, for which the protein stability index is 1.78.
On to YHTGKTPRVCPECGQPCSQKSGLI, for which the protein stability index is 2.09.
With YHTGKTPGVCPECGQPCSQKSGLI, the protein stability index stood at 1.8.
Turning to YHTGKTPEVCPECGQPCSQKSGLI, the protein stability index was found to be 2.52.
The figure for YHTGKTPAVCPECGQPCSQKSGLI is 1.84; for YHTGKTPPVCPECGQPCSQKSGLI it is 2.46; for YHTPKTPFVCPECGQPCSQKSGLI it is 1.83.
With YHTAKTPFVCPECGQPCSQKSGLI, the protein stability index is 1.49.
YHTIKTPFVCPECGQPCSQKSGLI: the protein stability index is 1.69.
Consider YHTRKTPFVCPECGQPCSQKSGLI, for which the protein stability index came to 1.62.
The figure for YHTDKTPFVCPECGQPCSQKSGLI is 2.48.
With YHTCKTPFVCPECGQPCSQKSGLI, the protein stability index worked out at 2.49.
Take YHTYKTPFVCPECGQPCSQKSGLI: the protein stability index is 1.69.
YHTLKTPFVCPECGQPCSQKSGLI: the protein stability index is 2.41.
Turning to YHTMKTPFVCPECGQPCSQKSGLI, the protein stability index was found to be 1.89.
YHTGKTPFVCPECGNPCSQKSGLI: the protein stability index was 3.41.
Take YHTGKTPFVCPECGFPCSQKSGLI: the protein stability index was 3.01.
The figure for YHTGKTPFVCPECGMPCSQKSGLI is 2.16; for YHTGKTPFVCPECGKPCSQKSGLI it is 2.35.
YHTGKTPFVCPECGTPCSQKSGLI: the protein stability index worked out at 2.35.
For the variant YHTGKTPFVCPECGIPCSQKSGLI, the protein stability index worked out at 1.62.
Regarding YHYGKTPFVCPECGQPCSQKSGLI, the protein stability index worked out at 1.27.
For the variant YHLGKTPFVCPECGQPCSQKSGLI, the protein stability index is 1.76.
As for YHCGKTPFVCPECGQPCSQKSGLI, the protein stability index came to 2.38.
With YHVGKTPFVCPECGQPCSQKSGLI, the protein stability index amounted to 2.46.
With YHDGKTPFVCPECGQPCSQKSGLI, the protein stability index stood at 2.68.
The figure for YHPGKTPFVCPECGQPCSQKSGLI is 1.61; for YHEGKTPFVCPECGQPCSQKSGLI it is 2.85; for YHTGKTLFVCPECGQPCSQKSGLI it is 2.12.
Take YHTGKTIFVCPECGQPCSQKSGLI: the protein stability index is 1.76.
YHTGKTQFVCPECGQPCSQKSGLI: the protein stability index is 1.77.
The figure for YHTGKTEFVCPECGQPCSQKSGLI is 1.44.
For the variant YHTGKTAFVCPECGQPCSQKSGLI, the protein stability index is 1.73.
Take YHTGKTDFVCPECGQPCSQKSGLI: the protein stability index was determined as 2.05.
YHTGKTPFVCPECGQPCSQKSKLI: the protein stability index was determined as 1.89.
For the variant YHTGKTPFVCPECGQPCSQKSALI, the protein stability index is 1.81.
Take YHTGKTPFVCPECGQPCSQKSFLI: the protein stability index is 2.34.
For YHTGKTPFVCPECGQPCSQKSMLI, the protein stability index came out at 1.87.
Regarding YHTGKTPFVCPECGQPCSQKSWLI, the protein stability index was 1.63.
In the case of YHTGKTPFVCPECGQPCSHKSGLI, the protein stability index turned out to be 2.2.
Consider YHTGKTPFVCPECGQPCSNKSGLI, for which the protein stability index amounted to 1.59.
The figure for YHTGKTPFVCPECGQPCSSKSGLI is 2.96; for YHTGKTPFVCPECGQPCSAKSGLI it is 1.58.
Consider YHTGKTPFVCPECGQPCSCKSGLI, for which the protein stability index stood at 2.69.
As for YHTGKTPFVCPECGQPCSMKSGLI, the protein stability index is 2.49.
On to YHTGKTPFVCPECGQPCSWKSGLI, for which the protein stability index amounted to 1.23.
On to YHTGKTPFVCPEYGQPCSQKSGLI, for which the protein stability index was determined as 3.41.
Regarding YHTGKTPFVCPEIGQPCSQKSGLI, the protein stability index came out at 2.35.
Regarding YHTGKTPFVCPEDGQPCSQKSGLI, the protein stability index was 2.6.
Regarding YHTGKTPFVCPEPGQPCSQKSGLI, the protein stability index was 2.27.
Regarding YHTGKTPFVCPEKGQPCSQKSGLI, the protein stability index came out at 3.33.
With YHTGKTPFVCPEHGQPCSQKSGLI, the protein stability index came to 3.
Take YHTGKTPFVCPWCGQPCSQKSGLI: the protein stability index worked out at 2.06.
Regarding YHTGKTPFVCPMCGQPCSQKSGLI, the protein stability index was 1.23.
For the variant YHTGKTPFVCPLCGQPCSQKSGLI, the protein stability index was found to be 2.16.
Regarding YHTGKTPFVCPACGQPCSQKSGLI, the protein stability index turned out to be 1.96.
As to YHTGKTPFVCPICGQPCSQKSGLI, the protein stability index was 1.91.
Consider YHTGKTPFVCPGCGQPCSQKSGLI, for which the protein stability index turned out to be 3.37.
As to YHTGKTPFVCPDCGQPCSQKSGLI, the protein stability index is 3.08.
Then YHTGKTPFVCPSCGQPCSQKSGLI, with 2.11.
YHTGKTPFVCPHCGQPCSQKSGLI: the protein stability index is 1.54.
Regarding YHTGKTPFVCRECGQPCSQKSGLI, the protein stability index came out at 1.79.
For YHTGKTPFVCKECGQPCSQKSGLI, the protein stability index was found to be 2.46.
For the variant YHTGKTPFVCAECGQPCSQKSGLI, the protein stability index was 2.04.
As to YHTGKTPFVCQECGQPCSQKSGLI, the protein stability index came to 1.57.
Then YHTGKTPFVCSECGQPCSQKSGLI, with 1.93; and YHTGKTPFVCMECGQPCSQKSGLI, with 2.32.
For the variant YHTGKTPFVCVECGQPCSQKSGLI, the protein stability index stood at 2.33.
For the variant YRTGKTPFVCPECGQPCSQKSGLI, the protein stability index is 2.1.
Then YWTGKTPFVCPECGQPCSQKSGLI, with 2.06; and YGTGKTPFVCPECGQPCSQKSGLI, with 1.98; and YLTGKTPFVCPECGQPCSQKSGLI, with 2.2.
As to YNTGKTPFVCPECGQPCSQKSGLI, the protein stability index was 2.39.

The values are drawn from the supplement of paper PMC10567573.
